Test results reported in the RNAGym collection of RNA variant scans (doi:10.1093/molbev/msab373).

B1: Azoarcus group I ribozyme (parent)
chain: GUGCCUUGCGCCGGGAAACCACGCAAGGGAUGGUGUCAAAUUCGGCGAAACCUAAGCGCCCGCCCGGGCGUAUGGCAACGCCGAGCCAAGCUUCGGCGCCUGCGCCGAUGAAGGUGUAGAGACUAGACGGCACCCACCUAAGGCAAACGCUAUGGUGAAGGCAUAGUCCAGGGAGUGGCGAAAGUCACACAAACCGG

Variants of: B1
Test: reverse-splicing fitness (ratio to wild type); higher = more active; in vitro selection; Mg2+ level not given
How it was run: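 An in vitro group I ribozyme library with randomized positions was T7-transcribed and gel-purified. In triplicate, 10 pmol RNA in EPPS pH 7.5 was reacted with 50 pmoles of a 30-nt RNA substrate for 1 h at 37 °C across several added MgCl2 levels (1–48 mM), then stopped with EDTA. Products were reverse transcribed from a substrate-complementary primer, PCR-amplified and sequenced (HiSeq 4000). Fitness is a variant's read proportion after selection over that before, normalised to wild type.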

Compared with A111C A120C A145C C150U C169A U176C, A111C A120C A145C C150U C169A U176G is higher in reverse-splicing fitness: 0.005 for the first, 0.00703 for the second.

Going from A111C A120C A145C C150U C169A U176A to C82U A145U C169U U176A, the reverse-splicing fitness rises from 0.0107 to 0.0111.

First: C82U A145U C169U U176C
Second: C82U A145U C169U U176G
The reverse-splicing fitness of the first is higher: 0.0127 for the first, 0.00406 for the second.

Compared with C82U C150A C169A U176G, C82U C150A C169A U176C is higher in reverse-splicing fitness: 0.00489 for the first, 0.0149 for the second.

Going from C82U C150A C169A U176A to C82U C150G C169A U176G, the reverse-splicing fitness falls from 0.019 to 0.00612.

Going from C82U C150G C169A U176A to C82U C150G C169A U176C, the reverse-splicing fitness falls from 0.0115 to 0.01.

Compared with C82U A145C C150A C169A U176A, C82U A145C C150A C169A U176G is lower in reverse-splicing fitness: 0.0088 for the first, 0.0047 for the second.

First: C82U A145C C150A C169A U176C
Second: C82U A120U C169G U176A
The reverse-splicing fitness of the first is higher: 0.00505 for the first, 0.00252 for the second.

Compared with C82U A120U C169G U176G, C82U A120U C169G U176C is higher in reverse-splicing fitness: 0.0015 for the first, 0.00306 for the second.

Going from C82U A145C C150A C169G U176C to C82U A145C C150A C169G U176G, the reverse-splicing fitness falls from 0.00995 to 0.00485.

Compared with C82U A145C C150A C169G U176A, C82U A145C C150A U176A is higher in reverse-splicing fitness: 0.0178 for the first, 0.031 for the second.

First: C82U A145C C150A U176C
Second: C82U A145C C150A U176G
The reverse-splicing fitness of the first is higher: 0.0348 for the first, 0.0119 for the second.

Compared with C82U A145C C150G C169A, C82U A145C C150G C169U is higher in reverse-splicing fitness: 0.00743 for the first, 0.00824 for the second.

First: C82U A145C C150G C169G
Second: C82U A145U U176A
The reverse-splicing fitness of the first is lower: 0.00699 for the first, 0.412 for the second.

First: C82U A145U U176G
Second: C82U A145U U176C
The reverse-splicing fitness of the first is lower: 0.153 for the first, 0.477 for the second.

First: C82U A120U C169A
Second: C82U A120U C169U
The reverse-splicing fitness of the first is lower: 0.00227 for the first, 0.00737 for the second.

Going from C82U A120U C169G to C82U U176G, the reverse-splicing fitness rises from 0.00592 to 0.126.

Compared with C82U U176A, C82U U176C is higher in reverse-splicing fitness: 0.386 for the first, 0.476 for the second.

Compared with C82U C150U, C82U C150A is lower in reverse-splicing fitness: 0.369 for the first, 0.0698 for the second.

Going from C82U C150G to C82U C150G C169U, the reverse-splicing fitness falls from 0.051 to 0.00789.

Going from C82U C150G C169G to C82U C150G C169A, the reverse-splicing fitness rises from 0.00776 to 0.00916.

Going from C82U C150U U176C to C82U C150U U176A, the reverse-splicing fitness falls from 0.294 to 0.238.

Compared with C82U C150U U176G, C82U A145U C150U U176A is higher in reverse-splicing fitness: 0.0675 for the first, 0.274 for the second.

Going from C82U A145U C150U U176C to C82U A145U C150U U176G, the reverse-splicing fitness falls from 0.346 to 0.0898.

First: C82U A145C C169U
Second: C82U A145C C169A
The reverse-splicing fitness of the first is higher: 0.0123 for the first, 0.00714 for the second.

Compared with C82U A145C C169G, C82U A145C C150G U176C is higher in reverse-splicing fitness: 0.00966 for the first, 0.0583 for the second.

Going from C82U A145C C150G U176A to C82U A145C C150G U176G, the reverse-splicing fitness falls from 0.0431 to 0.00905.

First: C82U A145C C169G U176G
Second: C82U A145C C169G U176C
The reverse-splicing fitness of the first is lower: 0.00428 for the first, 0.00995 for the second.

Compared with C82U A145C C169G U176A, A111C A120C A145C C150A C169U is lower in reverse-splicing fitness: 0.0179 for the first, 0.0161 for the second.

Compared with A111C A120C A145C C150A C169A, A111C A120C A145C C150A C169G is lower in reverse-splicing fitness: 0.00839 for the first, 0.0073 for the second.

Compared with C82U A145C C150G C169G U176C, C82U A145C C150G C169G U176G is lower in reverse-splicing fitness: 0.00649 for the first, 0.00454 for the second.

Compared with C82U A145C C150G C169G U176A, C82U A145U C150A U176A is higher in reverse-splicing fitness: 0.00879 for the first, 0.055 for the second.

Compared with C82U A145U C150A U176C, C82U A145U C150A U176G is lower in reverse-splicing fitness: 0.0543 for the first, 0.0221 for the second.

Going from C82U A145C C150U C169U U176G to C82U A145C C150U C169U U176C, the reverse-splicing fitness rises from 0.00478 to 0.00673.

Going from C82U A145C C150U C169U U176A to C82U A120U U176C, the reverse-splicing fitness rises from 0.0121 to 0.0796.

Compared with C82U A120U U176A, C82U A120U U176G is lower in reverse-splicing fitness: 0.0428 for the first, 0.0137 for the second.

Compared with C82U A145U C150U C169G U176C, C82U A145U C150U C169G U176A is lower in reverse-splicing fitness: 0.0107 for the first, 0.00933 for the second.

Going from C82U A145U C150U C169G U176G to C82U A120U C169A U176C, the reverse-splicing fitness falls from 0.00498 to 0.00216.

Compared with C82U A120U C169A U176A, C82U A120U C169A U176G is lower in reverse-splicing fitness: 0.00238 for the first, 0.00126 for the second.

Going from C82U C150G U176G to C82U C150G U176C, the reverse-splicing fitness rises from 0.00652 to 0.0477.

Compared with C82U C150G U176A, A111C A120C A145C C150U C169U U176G is lower in reverse-splicing fitness: 0.0283 for the first, 0.00555 for the second.

Compared with A111C A120C A145C C150U C169U U176A, A111C A120C A145C C150U C169U U176C is higher in reverse-splicing fitness: 0.0206 for the first, 0.0237 for the second.
